In the experiment the target is farletuzumab. As to the kind of experiment: cell-based or functional assay.
Sequence of farletuzumab (heavy, as listed by the source, chain 1 of 2): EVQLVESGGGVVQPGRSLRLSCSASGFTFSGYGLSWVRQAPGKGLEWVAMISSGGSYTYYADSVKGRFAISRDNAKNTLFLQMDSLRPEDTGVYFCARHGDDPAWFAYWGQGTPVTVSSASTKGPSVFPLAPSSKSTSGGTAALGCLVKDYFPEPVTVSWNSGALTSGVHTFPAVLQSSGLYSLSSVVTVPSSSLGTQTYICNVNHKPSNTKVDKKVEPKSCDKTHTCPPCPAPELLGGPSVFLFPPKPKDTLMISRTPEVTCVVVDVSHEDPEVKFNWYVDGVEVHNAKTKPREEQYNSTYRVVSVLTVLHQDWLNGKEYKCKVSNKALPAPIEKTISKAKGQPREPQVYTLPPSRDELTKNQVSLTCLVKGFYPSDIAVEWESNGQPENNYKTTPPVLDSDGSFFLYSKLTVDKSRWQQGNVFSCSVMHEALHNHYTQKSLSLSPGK
Sequence of farletuzumab (light, as listed by the source, chain 2 of 2): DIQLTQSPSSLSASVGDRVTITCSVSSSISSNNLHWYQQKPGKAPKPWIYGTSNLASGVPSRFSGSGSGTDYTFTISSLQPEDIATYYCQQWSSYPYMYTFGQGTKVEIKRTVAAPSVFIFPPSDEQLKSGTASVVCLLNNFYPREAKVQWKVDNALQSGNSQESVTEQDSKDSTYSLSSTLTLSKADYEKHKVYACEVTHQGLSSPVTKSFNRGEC

“cancer antigen 125 (CA125) (from UniProt Q8WXI7 1-14451)”: the inhibition of Farletuzumab ADCC activity (luminescence, Promega ADCC Reporter Bioassay Core Kit, CHO-hFR-α target cells) is 50%.
